These results are taken from US7368293 (ROCKEFELLER UNIVERSITY, dated 2008).

This series deals with the molecule itself. Description: in vitro translation, gel mobility-shift with 32P APF-1 probe; inferred from heterodimer bands and absence of monomer complexes. The protocol:
Since amino acids in the ligand binding domain of the estrogen receptor are known to be necessary for receptor dimerization and subsequent DNA binding (Kumar & Chambon, 1988; Fawell et al., 1990), we determined whether HNF-4 binds to its recognition site as a monomer or as a dimer. The full length cDNA (Xho I) was co-translated in vitro with either of the two truncated products that bind DNA (PflM I and Hga I) and the products were tested in the mobility-shift assay. When the full length and truncated transcripts were translated together, complexes of intermediate mobility were produced with both the APF-1 probe (lanes 3 and 5, FIG. 5D) and the −151 to −130 TTR probe (not shown).

B1: HNF-4 (hepatocyte nuclear factor 4), full length protein translated in vitro from pf7 cDNA (Xho I-cut template) (receptor)
chain: MDMADYSAALDPAYTTLEFENVQVLTMGNDTSPSEGANLNSSNSLGVSALCAICGDRATGKHYGASSCDGCKGFFRRSVRKNHMYSCRFSRQCVVDKDKRNQCRYCRLKKCFRAGMKKEAVQNERDRISTRRSSYEDISLPSINALLQAEVLSQQITSPISGINGDIRAKRIASITDVCESMKEQLLVLVEWAKYIPAFCELLLDDQVALLRAHAGEHLLLGATKRSMVFKDVLLLGNDYIVPRHCPELAEMSRVSIRILDELVLPFQELQIDDNEYACLKAIIFFDPDAKGLSDPGKIKRLRSQVQVSLEDYINDRQYDSRGRFGELLLLLPTLQSITWQMIEQIQFIKLFGMAKIDNLLQEMLLGGSASDAPHAHHPLHPHLMQEHMGTNVIVANTMPSHLTNGQMSTPETPQPSPPSGSGSESYKLLPGAITTIVKPPSAIPQPTITKQEAI
notes: Translated in rabbit reticulocyte lysate from T3/T7 transcripts of pf7 (rat liver cDNA); also called full length cDNA (Xho I); in vitro synthesized HNF-4
B1: the binding result is “binds”.
